Data taken from patent publication US20170333564A1 (UNIVERSITY OF ROCHESTER, published 2017).
No end group written: not given here. *: point of attachment. Myristoyl = CCCCCCCCCCCCCC(=O)*

Target: IRK (IR β-chain) immunoprecipitated from HEK cell lysates (UniProt P06213 763-1382, limits assumed)
Assay: cell-based or functional assay

IRK (IR β-chain) immunoprecipitated from HEK cell lysates, sequence (P06213 763-1382 limits assumed): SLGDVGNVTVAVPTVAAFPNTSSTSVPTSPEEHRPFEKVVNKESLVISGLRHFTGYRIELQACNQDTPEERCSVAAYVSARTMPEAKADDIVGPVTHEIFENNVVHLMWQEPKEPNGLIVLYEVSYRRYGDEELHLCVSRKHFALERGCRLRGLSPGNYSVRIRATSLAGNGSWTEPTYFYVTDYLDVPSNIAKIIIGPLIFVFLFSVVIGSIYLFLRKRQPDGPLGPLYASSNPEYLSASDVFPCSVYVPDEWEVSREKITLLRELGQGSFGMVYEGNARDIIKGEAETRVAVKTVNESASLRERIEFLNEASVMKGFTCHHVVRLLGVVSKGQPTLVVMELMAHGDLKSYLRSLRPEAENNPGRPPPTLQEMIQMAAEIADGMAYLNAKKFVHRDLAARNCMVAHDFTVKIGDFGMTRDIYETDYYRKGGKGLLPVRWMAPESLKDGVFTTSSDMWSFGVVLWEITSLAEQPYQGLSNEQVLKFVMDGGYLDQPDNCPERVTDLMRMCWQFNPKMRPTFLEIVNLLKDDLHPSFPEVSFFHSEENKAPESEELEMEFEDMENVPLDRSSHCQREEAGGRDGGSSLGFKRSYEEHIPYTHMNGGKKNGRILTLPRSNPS

kinase activity of IRK immunoprecipitated from HEK cells treated with 40 µM myristoylated peptide for 15 minutes, IRS peptide substrate: ~3 fold
Binder: Myristoyl-KYCCSRK (cysteine pairing not given here) [P2, myr-KYCCSRK (hBVR-based peptide)]
